From PMC11305399, “FLT3/CD99 Bispecific Antibody–Based Nanoparticles for Acute Myeloid Leukemia” (Cancer Research Communications, 2024) come the findings set out here.

In the test the target is Cluster of differentiation 99 (CD99) (Homo sapiens (Human)., UniProt P14209). Put plainly: cell-based or functional assay.
Cluster of differentiation 99 (CD99), sequence (P14209 23-185): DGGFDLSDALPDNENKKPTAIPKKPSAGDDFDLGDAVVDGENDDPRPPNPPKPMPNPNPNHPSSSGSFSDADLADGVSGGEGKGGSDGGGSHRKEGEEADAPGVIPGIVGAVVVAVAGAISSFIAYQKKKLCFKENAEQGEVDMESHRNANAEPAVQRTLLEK

B1: CD99-A192 (α-CD99 scFv fused to the amino-terminus of the elastin-like polypeptide A192) (scFv, V domains shown)
VH: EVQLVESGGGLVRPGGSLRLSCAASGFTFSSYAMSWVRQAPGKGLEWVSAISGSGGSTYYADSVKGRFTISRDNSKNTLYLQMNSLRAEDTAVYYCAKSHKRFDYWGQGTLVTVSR
VL: SSELTQDPAVSVALGQTVRITCQGDSLRSYYASWYQQKPGQAPVLVIYGKNNRPSGIPDRFSGSSSGNTASLTITGAQAEDEADYYCNSSFPRTSSVVFGGGTKLTVL
On to B1, for which the “IC50 of cell viability (CCK-8) of MV4-11 cells, 72 hours” value was 0.4 µM and the “phospho-SRC in MV4-11 cells at 24 hours (western blot), 25 μmol/L CD99-A192 vs. A192” value is 11 fold.
